# B1: Protein SSD1 (Saccharomyces cerevisiae), P24276 (parent)
# chain: MSKNSNVNNNRSQEPNNMFVQTTGGGKNAPKQIHVAHRRSQSELTNLMIEQFTLQKQLEQVQAQQQQLMAQQQQLAQQTGQYLSGNSGSNNHFTPQPPHPHYNSNGNSPGMSAGGSRSRTHSRNNSGYYHNSYDNNNNSNNPGSNSHRKTSSQSSIYGHSRRHSLGLNEAKKAAAEEQAKRISGGEAGVTVKIDSVQADSGSNSTTEQSDFKFPPPPNAHQGHRRATSNLSPPSFKFPPNSHGDNDDEFIATSSTHRRSKTRNNEYSPGINSNWRNQSQQPQQQLSPFRHRGSNSRDYNSFNTLEPPAIFQQGHKHRASNSSVHSFSSQGNNNGGGRKSLFAPYLPQANIPELIQEGRLVAGILRVNKKNRSDAWVSTDGALDADIYICGSKDRNRALEGDLVAVELLVVDDVWESKKEKEEKKRRKDASMQHDLIPLNSSDDYHNDASVTAATSNNFLSSPSSSDSLSKDDLSVRRKRSSTINNDSDSLSSPTKSGVRRRSSLKQRPTQKKNDDVEVEGQSLLLVEEEEINDKYKPLYAGHVVAVLDRIPGQLFSGTLGLLRPSQQANSDNNKPPQSPKIAWFKPTDKKVPLIAIPTELAPKDFVENADKYSEKLFVASIKRWPITSLHPFGILVSELGDIHDPDTEIDSILRDNNFLSNEYLDQKNPQKEKPSFQPLPLTAESLEYRRNFTDTNEYNIFAISELGWVSEFALHVRNNGNGTLELGCHVVDVTSHIEEGSSVDRRARKRSSAVFMPQKLVNLLPQSFNDELSLAPGKESATLSVVYTLDSSTLRIKSTWVGESTISPSNILSLEQLDEKLSTGSPTSYLSTVQEIARSFYARRINDPEATLLPTLSLLESLDDEKVKVDLNILDRTLGFVVINEIKRKVNSTVAEKIYTKLGDLALLRRQMQPIATKMASFRKKIQNFGYNFDTNTADELIKGVLKIKDDDVRVGIEILLFKTMPRARYFIAGKVDPDQYGHYALNLPIYTHFTAPMRRYADHVVHRQLKAVIHDTPYTEDMEALKITSEYCNFKKDCAYQAQEQAIHLLLCKTINDMGNTTGQLLTMATVLQVYESSFDVFIPEFGIEKRVHGDQLPLIKAEFDGTNRVLELHWQPGVDSATFIPADEKNPKSYRNSIKNKFRSTAAEIANIELDKEAESEPLISDPLSKELSDLHLTVPNLRLPSASDNKQNALEKFISTTETRIENDNYIQEIHELQKIPILLRAEVGMALPCLTVRALNPFMKRV
# B2: Serine/threonine-protein kinase CBK1 (Saccharomyces cerevisiae), P53894 (parent)
# chain: MYNSSTNHHEGAPTSGHGYYMSQQQDQQHQQQQQYANEMNPYQQIPRPPAAGFSSNYMKEQGSHQSLQEHLQRETGNLGSGFTDVPALNYPATPPPHNNYAASNQMINTPPPSMGGLYRHNNNSQSMVQNGNGSGNAQLPQLSPGQYSIESEYNQNLNGSSSSSPFHQPQTLRSNGSYSSGLRSVKSFQRLQQEQENVQVQQQLSQAQQQNSRQQQQQLQYQQQQQQQQQQQHMQIQQQQQQQQQQQQSQSPVQSGFNNGTISNYMYFERRPDLLTKGTQDKAAAVKLKIENFYQSSVKYAIERNERRVELETELTSHNWSEERKSRQLSSLGKKESQFLRLRRTRLSLEDFHTVKVIGKGAFGEVRLVQKKDTGKIYAMKTLLKSEMYKKDQLAHVKAERDVLAGSDSPWVVSLYYSFQDAQYLYLIMEFLPGGDLMTMLIRWQLFTEDVTRFYMAECILAIETIHKLGFIHRDIKPDNILIDIRGHIKLSDFGLSTGFHKTHDSNYYKKLLQQDEATNGISKPGTYNANTTDTANKRQTMVVDSISLTMSNRQQIQTWRKSRRLMAYSTVGTPDYIAPEIFLYQGYGQECDWWSLGAIMYECLIGWPPFCSETPQETYRKIMNFEQTLQFPDDIHISYEAEDLIRRLLTHADQRLGRHGGADEIKSHPFFRGVDWNTIRQVEAPYIPKLSSITDTRFFPTDELENVPDSPAMAQAAKQREQMTKQGGSAPVKEDLPFIGYTYSRFDYLTRKNAL
# partner: B1 chain
# B3: Metallothionein expression activator (Saccharomyces cerevisiae), P21192 (parent)
# chain: MDNVVDPWYINPSGFAKDTQDEEYVQHHDNVNPTIPPPDNYILNNENDDGLDNLLGMDYYNIDDLLTQELRDLDIPLVPSPKTGDGSSDKKNIDRTWNLGDENNKVSHYSKKSMSSHKRGLSGTAIFGFLGHNKTLSISSLQQSILNMSKDPQPMELINELGNHNTVKNNNDDFDHIRENDGENSYLSQVLLKQQEELRIALEKQKEVNEKLEKQLRDNQIQQEKLRKVLEEQEEVAQKLVSGATNSNSKPGSPVILKTPAMQNGRMKDNAIIVTTNSANGGYQFPPPTLISPRMSNTSINGSPSRKYHRQRYPNKSPESNGLNLFSSNSGYLRDSELLSFSPQNYNLNLDGLTYNDHNNTSDKNNNDKKNSTGDNIFRLFEKTSPGGLSISPRINGNSLRSPFLVGTDKSRDDRYAAGTFTPRTQLSPIHKKRESVVSTVSTISQLQDDTEPIHMRNTQNPTLRNANALASSSVLPPIPGSSNNTPIKNSLPQKHVFQHTPVKAPPKNGSNLAPLLNAPDLTDHQLEIKTPIRNNSHCEVESYPQVPPVTHDIHKSPTLHSTSPLPDEIIPRTTPMKITKKPTTLPPGTIDQYVKELPDKLFECLYPNCNKVFKRRYNIRSHIQTHLQDRPYSCDFPGCTKAFVRNHDLIRHKISHNAKKYICPCGKRFNREDALMVHRSRMICTGGKKLEHSINKKLTSPKKSLLDSPHDTSPVKETIARDKDGSVLMKMEEQLRDDMRKHGLLDPPPSTAAHEQNSNRTLSNETDAL
# Variants of: B1
# Settings: with cbk1_yeast CBK1, P53894
row,Variant,effect of a mutation on the interaction
1,K212D,disrupting interaction strength
2,K212F,disrupting interaction strength
3,F213A,disrupting interaction strength
4,F211W,disrupting interaction strength
5,K212Q,disrupting interaction strength
6,F211A,disrupting interaction strength
7,K212A,disrupting interaction strength
8,F213Y,disrupting interaction strength
9,K212S,disrupting interaction strength
10,K212T,disrupting interaction strength
11,P214A,disrupting interaction strength
12,K212M,disrupting interaction strength
13,F213W,disrupting interaction strength

# Variants of: B2
# Settings: with ssd1_yeast SSD1, P24276
row,Variant,effect of a mutation on the interaction
1,Y687A,disrupting interaction strength

# Variants of: B3
# Settings: with cbk1_yeast CBK1, P53894
row,Variant,effect of a mutation on the interaction
1,I272A,decreasing interaction strength
2,N277A,decreasing interaction strength
3,Y283A,disrupting interaction strength
4,F285A,disrupting interaction strength
5,P286A,disrupting interaction strength

# — IntAct's records for PubMed 25966461
